Test results as given in paper PMC13337110, “Pericentrosomal Redistribution of the Endoplasmic Reticulum Ensures Organelle Symmetric Inheritance and Mitotic Progression” (Advanced Science, 2026).

Target: T1, 2×Strep-HA-RTN4B (human, UniProt Q9NQC3-2 1-373, when from mitotic cells: mitotic phosphorylation sites S15, S107, S111, S121, S129, S152)
T1 construct: Reticulon 4, isoform RTN4B, human; cDNA GenBank NM_153828.3 amplified from a U2OS cDNA library; N-terminal cytoplasmic region 1-185 and C-terminal RHD; Tag ends read from the printed construct name; also called Reticulon 4; 2×Strep-HA-RTN4B wild-type (WT); source: HeLa, stably expressed; not shown: 2×Strep, N-terminal, kept; HA, N-terminal, kept
T1 sequence (looked up): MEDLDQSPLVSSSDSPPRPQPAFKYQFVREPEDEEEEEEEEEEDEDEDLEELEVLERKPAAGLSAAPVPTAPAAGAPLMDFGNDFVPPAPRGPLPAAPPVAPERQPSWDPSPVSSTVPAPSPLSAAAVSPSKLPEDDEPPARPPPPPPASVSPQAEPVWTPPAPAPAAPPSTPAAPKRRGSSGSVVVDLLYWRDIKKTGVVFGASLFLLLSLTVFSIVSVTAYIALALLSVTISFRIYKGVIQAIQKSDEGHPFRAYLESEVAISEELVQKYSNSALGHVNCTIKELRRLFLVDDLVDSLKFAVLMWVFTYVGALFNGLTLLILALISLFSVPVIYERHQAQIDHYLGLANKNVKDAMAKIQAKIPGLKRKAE
Assay: pull-down; in vitro binding: 2×Strep-HA-RTN4B on Strep-Tactin XT beads incubated with purified GST-Rab11A, 2 h at 4°C; eluted with Strep-Tactin XT elution buffer; Western blot and Coomassie
Conditions: both partners purified

binding result: binds
B1: GST-Rab11A (natural protein, human, UniProt P62491-1 1-216, looked up)
chain: MGTRDDEYDYLFKVVLIGDSGVGKSNLLSRFTRNEFNLESKSTIGVEFATRSIQVDGKTIKAQIWDTAGQERYRAITSAYYRGAVGALLVYDIAKHLTYENVERWLKELRDHADSNIVIMLVGNKSDLRHLRAVPTDEARAFAEKNGLSFIETSALDSTNVEAAFQTILTEIYRIVSQKQMSDRRENDMSPSNNVVPIHVPPTTENKPKVQCCQNI
notes: Rab11A, human; cDNA GenBank NM_004663.5 in pGEX-6P-1; also called Recombinant Rab11A; GST-tagged Rab11A; source: E. coli Rosetta (DE3), purified (Glutathione Sepharose 4B; eluted with reduced glutathione or kept on beads); not shown: GST, N-terminal, kept
